From publication PMC7973133, “Escherichia coli FabG 3-ketoacyl-ACP reductase proteins lacking the assigned catalytic triad residues are active enzymes” (The Journal of Biological Chemistry, 2021)
Numbering of substitutions follows the chain as printed. Names and notes keep the numbering of the source.

T1: E. coli FabG (3-ketoacyl-ACP reductase) (Escherichia coli, UniProt P0AEK2)
T1 construct: homotetramer
T1 sequence (P0AEK2 1-244): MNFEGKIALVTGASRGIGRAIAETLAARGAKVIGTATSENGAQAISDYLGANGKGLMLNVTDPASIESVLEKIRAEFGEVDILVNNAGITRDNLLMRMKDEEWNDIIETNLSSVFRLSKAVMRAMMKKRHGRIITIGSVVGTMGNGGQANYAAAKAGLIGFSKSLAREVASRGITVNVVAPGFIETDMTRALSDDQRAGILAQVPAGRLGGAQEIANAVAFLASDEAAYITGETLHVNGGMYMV

B1: E. coli FabG (3-ketoacyl-ACP reductase) (Escherichia coli K-12) (protein)
chain: T1 sequence (P0AEK2 1-244)
notes: homotetramer
B2: E. coli FabG (3-ketoacyl-ACP reductase) (Escherichia coli K-12; S138A) (protein)
chain: T1 sequence (P0AEK2 1-244) with S138A
notes: homotetramer
B3: E. coli FabG (3-ketoacyl-ACP reductase) (Escherichia coli K-12; Y151F) (protein)
chain: T1 sequence (P0AEK2 1-244) with Y151F
notes: homotetramer
B4: E. coli FabG (3-ketoacyl-ACP reductase) (Escherichia coli K-12; K155A) (protein)
chain: T1 sequence (P0AEK2 1-244) with K155A
notes: homotetramer

Experiments:
[1] = target: T1, E. coli FabG (3-ketoacyl-ACP reductase); test: fluorescence titration; assay type: binding
Text: (§1) fluorescence titration on E. coli FabG (3-ketoacyl-ACP reductase) | wildtype FabG and mutant proteins S138A and Y151F could bind NADPH with Kd values

[2] = target: T2, E. coli FabG (3-ketoacyl-ACP reductase) (Escherichia coli, UniProt P0AEK2, S138A); test: fluorescence titration; assay type: binding
T2 construct: homotetramer
Text: as §1

[3] = target: T3, E. coli FabG (3-ketoacyl-ACP reductase) (Escherichia coli, UniProt P0AEK2, Y151F); test: fluorescence titration; assay type: binding
T3 construct: homotetramer
Text: as §1

[4] = substrate: NC(=O)C1=CN([C@@H]2O[C@H](COP(=O)(O)OP(=O)(O)OC[C@H]3O[C@@H](n4cnc5c(N)ncnc54)[C@H](OP(=O)(O)O)[C@@H]3O)[C@@H](O)[C@H]2O)C=CC1; test: purified protein; assay type: biochemical, Escherichia coli; conditions: acetoacetyl-ACP generated in situ (100 μM ACP, 500 μM malonyl-CoA, 500 μM acetyl-CoA, FabD, FabH), 0.1 M sodium phosphate pH 7.0, varied: cofactor

| Molecule | Kd [1] | Kd [2] | Kd [3] | Km [4] |
| --- | --- | --- | --- | --- |
| NC(=O)C1=CN([C@@H]2O[C@H](COP(=O)(O)OP(=O)(O)OC[C@H]3O[C@@H](n4cnc5c(N)ncnc54)[C@H](OP(=O)(O)O)[C@@H]3O)[C@@H](O)[C@H]2O)C=CC1 [NADPH] | 13.2 µM | 13.9 µM | 15.8 µM |  |
| B1 |  |  |  | 99.22 µM |
| B2 |  |  |  | 101.47 µM |
| B3 |  |  |  | 147.72 µM |
| B4 |  |  |  | 166.45 µM |
